From US20150299258A1 (UNIVERSITY OF TOKYO, published 2015)
Positions of bridges follow the written chain, without caps; N, C: chain ends.

Tests used:
[1] = target: VEGFR2 expressed by HUVEC (human, UniProt P35968 20-1356); assay: cell-based or functional assay
[2] = target: T1, fusion protein of human VEGFR2 and Fc (human, UniProt P35968 20-764, limits assumed); assay: BLI (ForteBio), VEGFR2-Fc on anti-human IgG capture biosensors, peptide in solution, 30 C
T1 construct: not shown: Fc
Experimental: A dissociation constant of binding between the cyclic peptide L1 or BL1 thus synthesized and human VEGFR2 or mouse VEGFR2 was determined by BLI method (ForteBio). A fusion protein of VEGFR2 and Fc was immobilized onto Anti-human IgG Capture Biosensors and the cyclic peptide L1 or BL1 varied in concentration was analyzed. The temperature was set at 30° C.

T1 sequence (P35968 20-764 limits assumed): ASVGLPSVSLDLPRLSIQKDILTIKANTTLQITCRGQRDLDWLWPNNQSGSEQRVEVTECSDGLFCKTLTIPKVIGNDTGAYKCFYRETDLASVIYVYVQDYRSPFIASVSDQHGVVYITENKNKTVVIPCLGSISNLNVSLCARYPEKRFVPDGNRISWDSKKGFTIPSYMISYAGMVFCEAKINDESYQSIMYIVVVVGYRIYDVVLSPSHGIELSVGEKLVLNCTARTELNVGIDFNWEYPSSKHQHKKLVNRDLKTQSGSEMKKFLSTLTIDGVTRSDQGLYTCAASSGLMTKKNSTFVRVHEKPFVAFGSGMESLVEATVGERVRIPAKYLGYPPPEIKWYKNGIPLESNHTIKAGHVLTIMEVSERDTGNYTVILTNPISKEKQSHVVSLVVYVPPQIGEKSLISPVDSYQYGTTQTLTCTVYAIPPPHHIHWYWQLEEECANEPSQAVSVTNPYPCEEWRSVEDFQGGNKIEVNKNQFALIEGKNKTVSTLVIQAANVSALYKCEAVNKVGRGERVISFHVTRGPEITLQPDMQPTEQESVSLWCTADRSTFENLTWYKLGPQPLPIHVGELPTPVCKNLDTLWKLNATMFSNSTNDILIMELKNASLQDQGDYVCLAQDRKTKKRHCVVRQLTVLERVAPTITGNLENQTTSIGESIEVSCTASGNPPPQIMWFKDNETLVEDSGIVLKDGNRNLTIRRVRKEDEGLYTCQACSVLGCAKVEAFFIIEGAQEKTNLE
Sequence of VEGFR2 expressed by HUVEC (P35968 20-1356): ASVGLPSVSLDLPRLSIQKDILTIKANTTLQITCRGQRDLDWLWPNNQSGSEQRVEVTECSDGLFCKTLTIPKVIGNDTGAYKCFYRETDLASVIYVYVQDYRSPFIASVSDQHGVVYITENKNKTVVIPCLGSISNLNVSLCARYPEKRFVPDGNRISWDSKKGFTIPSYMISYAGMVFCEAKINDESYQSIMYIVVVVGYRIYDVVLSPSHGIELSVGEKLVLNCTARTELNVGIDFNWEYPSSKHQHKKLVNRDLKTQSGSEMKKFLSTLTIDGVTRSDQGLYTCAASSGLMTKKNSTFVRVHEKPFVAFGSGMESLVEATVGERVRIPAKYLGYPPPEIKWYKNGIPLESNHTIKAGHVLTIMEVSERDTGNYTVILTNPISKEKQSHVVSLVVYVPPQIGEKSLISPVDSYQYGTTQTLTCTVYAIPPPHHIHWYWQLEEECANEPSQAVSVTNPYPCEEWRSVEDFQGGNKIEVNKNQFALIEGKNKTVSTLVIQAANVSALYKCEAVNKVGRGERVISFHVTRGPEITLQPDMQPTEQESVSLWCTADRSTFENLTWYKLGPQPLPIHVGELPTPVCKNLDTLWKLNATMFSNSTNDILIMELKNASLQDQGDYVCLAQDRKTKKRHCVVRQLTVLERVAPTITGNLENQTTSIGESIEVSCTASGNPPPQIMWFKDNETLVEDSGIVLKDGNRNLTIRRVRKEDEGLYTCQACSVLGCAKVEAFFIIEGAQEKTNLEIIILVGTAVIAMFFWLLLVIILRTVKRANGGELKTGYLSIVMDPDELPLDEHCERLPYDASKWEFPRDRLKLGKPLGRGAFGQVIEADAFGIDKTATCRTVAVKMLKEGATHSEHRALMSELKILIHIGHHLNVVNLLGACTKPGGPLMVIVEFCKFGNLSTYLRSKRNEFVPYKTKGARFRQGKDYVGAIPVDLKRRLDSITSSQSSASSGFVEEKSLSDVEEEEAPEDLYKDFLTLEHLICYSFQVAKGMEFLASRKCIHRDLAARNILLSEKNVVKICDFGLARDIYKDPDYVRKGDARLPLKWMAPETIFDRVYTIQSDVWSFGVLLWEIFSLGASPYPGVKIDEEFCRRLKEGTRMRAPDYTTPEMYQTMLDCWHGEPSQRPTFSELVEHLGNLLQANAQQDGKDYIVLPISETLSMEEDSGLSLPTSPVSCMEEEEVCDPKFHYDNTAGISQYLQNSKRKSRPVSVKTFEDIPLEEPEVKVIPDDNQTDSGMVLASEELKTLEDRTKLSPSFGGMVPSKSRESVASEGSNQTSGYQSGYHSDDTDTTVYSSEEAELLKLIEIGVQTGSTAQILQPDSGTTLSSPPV

B1: cyclic peptide L1, synthesized: ClAc-Phe-Val-Val-Val-Ser-Thr-Asp-Pro-Trp-Val-Asn-Gly-Leu-Tyr-Ile-Asp-Cys-Gly (peptide)
peptide: {CH2CO}-FVVVSTDPWVNGLYIDCG-NH2
modifications: thioether N-17
SMILES: CC[C@H](C)[C@@H]1NC(=O)[C@H](Cc2ccc(O)cc2)NC(=O)[C@H](CC(C)C)NC(=O)CNC(=O)[C@H](CC(N)=O)NC(=O)[C@H](C(C)C)NC(=O)[C@H](Cc2c[nH]c3ccccc23)NC(=O)[C@@H]2CCCN2C(=O)[C@H](CC(=O)O)NC(=O)[C@H]([C@@H](C)O)NC(=O)[C@H](CO)NC(=O)[C@H](C(C)C)NC(=O)[C@H](C(C)C)NC(=O)[C@H](C(C)C)NC(=O)[C@H](Cc2ccccc2)NC(=O)CSC[C@@H](C(=O)NCC(N)=O)NC(=O)[C@H](CC(=O)O)NC1=O
notes: Made by Fmoc solid-phase synthesis, cyclised and HPLC purified; this form was used in BLI and in the cell assays
growth inhibition of HUVEC with 10 ng/mL VEGF (BrdU method), IC50 [1]: 60 nM | Kd [2]: 94 nM | koff [2]: 0.002 s⁻¹ | kon [2]: 20000 M⁻¹ s⁻¹
